The target of test [1] is PrP^C, nonpathogenic (cellular) form of the human prion protein (in normal human brain homogenate and human plasma) (human) (UniProt P04156).
The target is the same in test [2]. This is another data set of the same source.

Experimental findings from patent US20120027677A1 are described below.

For the substance mAb SAF32 (antibody), in test [1], the LU stood at 888 LU.

The substance 3F4 antibody gave an ave (RLU), Nomal BH in test [2] of 14.6 RLU.
